This note sets out measurements from article PMC2901902 (Nature, 2010).

For assay [1], the target named is human DPF3b tandem PHD finger (residues 261–372) (human, UniProt Q92784-1 261-372). In words: NMR solution structure.
Assay [2] deals with T1, DPF3b PHD12 with Ala mutation of Asp335 (human, UniProt Q92784-1 261-372, Ala mutation of Asp335).
T1 sequence (looked up): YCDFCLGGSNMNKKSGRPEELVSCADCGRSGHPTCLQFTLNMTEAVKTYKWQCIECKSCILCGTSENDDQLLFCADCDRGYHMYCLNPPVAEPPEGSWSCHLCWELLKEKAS
Put plainly: ITC. (In general: In ITC the heat of successive injections is recorded.)

In assay [3] the target is DPF3b PHD12 with Ala mutation of Glu315 (human, UniProt Q92784-1 261-372, Ala mutation of Glu315). Put plainly: ITC.
The next assay deals with DPF3b PHD12 D263A (human, UniProt Q92784-1 261-372, D263A). Put plainly: ITC.
The target of another assay is DPF3b PHD12 F264A (human, UniProt Q92784-1 261-372, F264A). In words: ITC.

Where no end group is shown, it is not given here.

As for GLGKGGAK(Ac)RHRKVLR (peptide, UniProt P62805 10-24, looked up) [histone H4K16ac peptide (residues 9–23)], the binding result in assay [1] is “binds”.

For the molecule ARTKQTARKSTGGK(Ac)APRK (peptide, UniProt P68431 2-19, looked up) [histone H3 peptide acetylated at lysine 14 (residues 1–18)], the binding result in assay [2] and in assay [3] was “binds” each time.

ARTKQTARKSTGGKAPRK (peptide, UniProt P68431 2-19, looked up) [unmodified histone H3 peptide (residues 1–18)]: the binding result in the assay with DPF3b PHD12 D263A and with DPF3b PHD12 F264A was “binds” throughout.
